Experimental data published in US20210388083A1.

What was measured:
[1] = target: histidine-tagged human FcγRIIIa-158V (human) (UniProt P08637); assay: BLI (Octet Red384); His-tagged receptor on anti-Penta-HIS biosensor; antibody 15.6-500 nM, PBS pH 7.2; global 1:1 fit
[2] = target: histidine-tagged mouse FcγRIV (mouse); assay: BLI (Octet Red384); His-tagged receptor (row moFcγRIV) on anti-Penta-HIS biosensor; antibody 125-4000 nM, PBS pH 7.2; global 1:1 fit
[3] = target: histidine-tagged mouse FcγRIV (mouse); assay: BLI (Octet Red384); His-tagged receptor on anti-Penta-HIS biosensor; antibody 125-4000 nM, PBS pH 7.2; global 1:1 fit
[4] = target: histidine-tagged human FcγRIIIa-158V (human) (UniProt P08637); assay: as above
[5] = target: histidine-tagged human FcγRIIIa-158F (human) (UniProt P08637); assay: as above
[6] = target: histidine-tagged human FcγRIIIa-158F (human) (UniProt P08637); assay: BLI (Octet Red384); His-tagged receptor (row FcγRIIIA (F158)) on anti-Penta-HIS biosensor; antibody 125-4000 nM, PBS pH 7.2; global 1:1 fit
[7] = target: histidine-tagged mouse FcRn (mouse) (UniProt Q61559); assay: BLI (Octet Red384); His-tagged receptor (row moFcRn) on anti-Penta-HIS biosensor; antibody 75-1000 nM, PBS pH 5.8; global 1:1 fit
[8] = target: histidine-tagged human FcγRIIIa-158V (human) (UniProt P08637); assay: BLI (Octet Red384); His-tagged receptor (row FcγRIIIA (V158)) on anti-Penta-HIS biosensor; antibody 125-4000 nM, PBS pH 7.2; global 1:1 fit
[9] = target: histidine-tagged mouse FcRn (mouse) (UniProt Q61559); assay: BLI (Octet Red384); His-tagged receptor on anti-Penta-HIS biosensor; antibody 75-1000 nM, PBS pH 5.8; global 1:1 fit
[10] = target: histidine-tagged human FcRn (human) (UniProt P55899); assay: as above
[11] = target: histidine-tagged human FcRn (human) (UniProt P55899); assay: BLI (Octet Red384); His-tagged receptor (row FcRn) on anti-Penta-HIS biosensor; antibody 75-1000 nM, PBS pH 5.8; global 1:1 fit

Row | Substance | Kd [1] | koff [1] | kon [1] | Kd [2] | Kd [3] | Kd [4] | Kd [5] | Kd [6] | Kd [7] | Kd [8] | Kd [9] | Kd [10] | Kd [11]
1 | antigen-binding molecule specific for HER3 comprising GASD Fc, human IgG1 (G1m3 allotype) (antibody) | 115 nM | 0.017 s⁻¹ | 150000 M⁻¹ s⁻¹ |  |  |  |  |  |  |  |  |  | 
2 | antigen-binding molecule specific for HER3 comprising GASDALIE Fc, human IgG1 (G1m3 allotype) (antibody) | 24 nM | 0.0052 s⁻¹ | 220000 M⁻¹ s⁻¹ |  |  |  |  |  |  |  |  |  | 
3 | antigen-binding molecule specific for HER3 comprising GASDIE Fc, human IgG1 (G1m3 allotype) (antibody) | 35 nM | 0.0072 s⁻¹ | 200000 M⁻¹ s⁻¹ |  |  |  |  |  |  |  |  |  | 
4 | antigen-binding molecule specific for HER3 comprising Wildtype (WT) Fc, human IgG1 (G1m3 allotype) (antibody) | 317 nM |  |  | 544 nM | 544 nM | 661 nM | 2230 nM | 2230 nM | 15.1 nM | 661 nM | 15.1 nM | 33.7 nM | 33.7 nM
